# Assay: soluble on expression in E. coli; label from the status in PepcDB or PDB records
row,Sequence,soluble on expression in E. coli
1,MAKIVLVLYDAGKHAADEEKLYGCTENKLGIANWLKDQGHELITTSDEEGGNSVLDQHIPDADIIITTPFHPAYITKERIDKAKKLKLVVVAGVGSDHIDLDYINQTGKKISVLEVTGSNVVSVAEHVVMTMLVLVRNFVPAHEQIINHDWEVAAIAKDAYDIEGKTIATIGAGRIGYRVLERLVPFNPKELLYYDYQALPKDAEEKVGARRVENIEELVAQADIVTVNAPLHAGTKGLINKELLSKFKKGAWLVNTARGAICVAEDVAAALESGQLRGYGGDVWFPQPAPKDHPWRDMRNKYGAGNAMTPHYSGTTLDAQTRYAQGTKNILESFFTGKFDYRPQDIILLNGEYVTKAYGKHDKK,soluble
2,RGKDITVWFQRLLDRMTDFFSSLSGRRKVCSKPRFRVRRTTNPAAKKSGTDPKIRETKTSIDEILDKIRISGYASLTAEEKRHLFDQSKRL,not soluble
3,MGSDKIHHHHHHMNEKEYEERLRIETIDIQHLYNAFSHYNRYEPTPYAALEELCAVYPFDYTDTVIDFGCGKGRLNFYLHDRFDCSVIGVEMNGQFYEDALMNQVTYMKKMKRRRGSIRFEHTYAEAYPIPDDVTKCYFFNPFSVQIFMKVVDQILASVERHPRPVDLILYYPADEYRYYLENQTIFEQVEEVRLKELFEKNHDERFVIYRVNLSQEVPKRV,not soluble
4,MSLKAPGALRLLCFSDTHEKHLKIPPHQIVPCDICICAGDFTKFGDPAEVKKFKDWFIKIPARYRVLIAGNHETTFDVERYGRMVTQMRKIKSDLPRETAKSIVQTDGIIYLENESVEIEGLKIYGSPQTHYWEFWAFYYPDKDGPKVWAKIPHDTDILVCHTCPRSTIDLMRGQHVGCKSLANAIKEVQPSLVIYGHLHEGYGVAKIGKSVIANVSLTNLARKLANRPMIFDVSFKTPEIPRPLPKQPEETEIPKDEGHHHHHH,soluble
5,MTAPGSVPLTVIGGFWGAGKTTLLNYLLKVQHSERVLVMVNDFGSINIDAELLDQGRHDRPGVVRLQNGCVCCSIGGDLMQAFLQVMSMPDRPDRIIVEASGVADPTRIAQIGRVSGGLSDEGVITLVDASAVRALAADKYVGDIVRQQILSADIVLLNKLDLSSDAEIVETRAWLRDLAPRTRVVSCIHGEVDAVSVLGIGAGKVAPDTAGGPVDVPVPDLRRASTRHADTFHSSTLATEHRFDRRRIEYALDALPQTVLRGKGFVELEGEATPALLQLCGSRWTLDPVSTPAPPAGTHLVFIATGGRGVPRFDAPSHFEQALASRDAASADTSNLEHHHHHH,not soluble
6,MIVFSSLQIRRGVRVLLDNATATINPGQKVGLVGKNGCGKSTLLALLKNEISADGGSYTFPGSWQLAWVNQETPALPQAALEYVIDGDREYRQLEAQLHDANERNDGHAIATIHGKLDAIDAWSIRSRAASLLHGLGFSNEQLERPVSDFSGGWRMRLNLAQALICRSDLLLLDEPTNHLDLDAVIWLEKWLKSYQGTLILISHDRDFLDPIVDKIIHIEQQSMFEYTGNYSSFEVQRATRLAQQQAMYESQQERVAHLQSYIDRFRAKATKAKQAQSRIKMLERMELIAPAHVDNPFRFSFRAPESLPNPLLKMEKVSAGYGDRIILDSIKLNLVPGSRIGLLGRNGAGKSTLIKLLAGELAPVSGEIGLAKGIKLGYFAQHQLEYLRADESPIQHLARLAPQELEQKLRDYLGGFGFQGDKVTEETRRFSGGEKARLVLALIVWQRPNLLLLDEPTNHLDLDMRQALTEALIEFEGALVVVSHDRHLLRSTTDDLYLVHDRKVEPFDGDLEDYQQWLSDVQKQENQTDEAPKENANSAQARKDQKRREAELRAQTQPLRKEIARLEKEMEKLNAQLAQAEEKLGDSELYDQSRKAELTACLQQQASAKSGLEECEMAWLEAQEQLEQMLLEGQSN,soluble
7,METPKGTIIFTTVGRTHYGFDVFSLNIATSVERRLTDGVSVNFNAQFVNDKSDDVVFVSERNGSARIYKTRSGISKPEQIPGAPESYFHDRPIITQNNRLYFISAHEQPDRYFKNWSALYTVELNSAKREVTRVTPPDTADFSPAVSQSGDFLAVASYGTRSWGGEFHEINTDITVFKASKPETRVVICERGGWPTWSGDSTVFFHHQADDGWWSIFRVDIPENFTEYTDFPITPIRVTPSGLHCFTPAAFRDGKRIALATRRRGVNHRHIEIYDLENTTFQPVTESLNPSFHHYNPFVSPDSEFLGYHRFRGESTQGESIVPNIESIVSPIKTLRLLRINGSFPSSSPNGDLIALNSDFDINGGIKVSKSDGSKRWTLIKDRTAFYNSWSPTERHVIYTSLGPIFSPARIAVQIARIKFDPSDLTADKEDLPCDVKILTLENTGNNAFPSCSPDGKSIVFRSGRSGHKNLYIVDAVNGESNGGGIRRLTDGPWIDTMPCWSPKGDLIGFSSNRHNPENTAVFGAYVVRPDGTGLRRIQISGPEGSEEAARERVNHVSFNKDGDWLVFAANLSGVTAEPVTMPNQFQPYGDLYVVKLDGTGLRRLTWNGYEDGTPTWHTADELDLSQLNLNGQDGDKLEGQFEEPLWISCDI,soluble
8,MTKIKIVVIVGPTAVGKTALGISLAKAFNGEIISGDSQQVYRQLDIGTAKATQEEQEAAVHHLIDIREVTESYSAYDFVQDAQKSISDIVSRGKLPIIVGGTGLYLQSLLEGYHLGGQVDQEAVKAYRNELEQLDDHDLYERLQVNNITIEQVNRRRAIRALELAQFADELENAETAYEPLIIGLNDDRQVIYDRINQRVNRMIENGLLEEAKWLYEHYPTVQASRGIGYKELFPYFVGEMTLAEASDQLKQNTRRFAKRQLTWFRNRMAVSFTAITAPDYPQVVHDRVRDFLGQKEKSLEHHHHHH,not soluble
9,MEEHPRAWIISVGNELLIGRTINTNAAWLGSRLTLLGFEVERVVTVPDRVEDIAEEVGRALGRARVVITTGGLGPTYDDVTLQGVAMALGRGLKLHPGALEMVRRFYSKRGLGLTEDRVKMAMLPDGAEPLENPVGAAPGAVVEARGSLVASLPGVPSEMEAMFEKALRPLLEEIAPPGAVVECGIAVVGVPESSLAPYIKEASRVSPRVYVKSHPQGSEIGKPLVR,not soluble
10,MSLPANKLVFVGGMGAGKTTAVRAISDVEPVSTEMPLSQDAYGDKTYTTVALDYSSIELEDGELLHVYGVPGQKYLDFMWPLVCDGALGVIVLTSARDTQMRDTTLELLREFSRITPEASLAVGVTMTDEVQEFLLPPFREALVAEGFRIPVMRVDARSATQITFLVKTLLSYRYTSAPVLEHHHHHH,soluble
11,MAKKTSSKGKLPPGPSPLPVLGNLLQMDRKGLLRSFLRLREKYGDVFTVYLGSRPVVVLCGTDAIREALVDQAEAFSGRGKIAVVDPIFQGYGVIFANGERWRALRRFSLATMRDFGMGKRSVEERIQEEARCLVEELRKSKGALLDNTLLFHSITSNIICSIVFGKRFDYKDPVFLRLLDLFFQSFSLISSFSSQVFELFSGFLKYFPGTHRQIYRNLQEINTFIGQSVEKHRATLDPSNPRDFIDVYLLRMEKDKSDPSSEFHHQNLILTVLSLFFAGTETTSTTLRYGFLLMLKYPHVTERVQKEIEQVIGSHRPPALDDRAKMPYTDAVIHEIQRLGDLIPFGVPHTVTKDTQFRGYVIPKNTEVFPVLSSALHDPRYFETPNTFNPGHFLDANGALKRNEGFMPFSLGKRICLGEGIARTELFLFFTTILQNFSIASPVPPEDIDLTPRESGVGNVPPSYQIRFLARHHHHHH,soluble
12,MINKDTQLCMSLSGRPSNFGTTFHNYLYDKLGLNFIYKAFTTQDIEHAIKGVRALGIRGCAVSMPFKETCMPFLDEIHPSAQAIESVNTIVNDNGFLRAYNTDYIAIVKLIEKYHLNKNAKVIVHGSGGMAKAVVAAFKNSGFEKLKIYARNVKTGQYLAALYGYAYINSLENQQADILVNVTSIGMKGGKEEMDLAFPKAFIDNASVAFDVVAMPVETPFIRYAQARGKQTISGAAVIVLQAVEQFELYTHQRPSDELIAEAAAFARTKFLEHHHHHH,soluble
13,SVCLFALQIPHDEAQLLALLQQVVQSHPSFKIEVRRRDKLFACNSSAFKKYLALQLWEKYQLKGKLVDPAITVHVEVTKEHFLIISES,not soluble
14,RSFGLRASLVDALRKGKIQVAYQPLRVLDSGRMAGVEALARWTYDEVGPISPVTFLGWVEAMGLRQPFTRYIVQAALDGMKTRMAGDAPFYLSINVFPEDLEDESFLDFLTQSVRERELSPGSVVLEVTESAVFSTASPSVLFRRFRAAGFRIFLDDFGVGYSNLGNIIRWEVDGIKLDRIFMQSLGDFDSAAPVLDQVIEMARQLDLHLVIEGIEVRSQADYIFKRAPHAVGQGWLFGRPGPACALPAA,not soluble
15,GPGSMEGERTMKKNKKGSARGDCDGMISVGAKRLLVSVQDKNRRQKHGEFFDELLLVTQKAKRSPQVINIPGKNEVPVLAVGYIARAMGLNLSNVEVSCLVEMVEEKDLASRGFVPADALKEVIVEALMTGIMAPPKAPVKATPSRKKTASTLPPATIKPISVVRDGEEAIYEAFCVLDLSRRGYLEAEEMRHFLRIGGEPFTEEEVEEFITAAADPENGRIYYEEFADVLARE,soluble
16,NGSQQQILSNISSMGTNTIDVRPGKGFGDRRSGRVKTLTADDAKSLESLPFVDSVTPSLSNSLTVRYANQDATASVEGVGEDYFRVRGYEIAKGQFWDEESVNSLAQEAVIDDNTRKEMFADRNP,not soluble
17,MTICRPGKGHLMIQFDAVHKRFPNGTTAVHDLSLEMPEGGVTVLVGSSGCGKTTTLRMINRMVDPTSGTIRVGGRDILEQDAAELRRSIGYVIQQSGLFPHRTVLDNIATVPLLLGWGRRKARARAAELLDTVGLAADAGRRYPHQLSGGQQQRVGVARALAADPPVLLMDEPFGAVDPVVRTQLQDELLRLQKELSKTIVFVTHDIDEAVRLGDQIAVFRTGGHLVQCASPAELLARPADDFVADFLGAERGLKLLSLTTLADVPQGPAPEGGAWTLVLDEARRPQHWRSKDGAELPVRPLRDRDSLLAALNESVASPNGLTVRVDADGVLTGVSSRDDIHEHAGRAHSEASVAALEHHHHHH,not soluble
18,MGSDKIHHHHHHMLPNLKKALDGIVVCDFSWVGAGPIATNVLGQCGAEVIKIESKSRPDLLRTGGPFKDGINEGLERSGYFANRNPNKKGIALDMSHPKARAVAVRLIRKSDIVINNFRVGQMEKWGLGWEDVRKINPRIIYVTMSLQGETGPQKSYMGFGVNLNALCGLTAQACFPGERPFGTGTNYTDHVMAPSHTLFGIMAALLEREQTGEGQTVAISQLKSAISMAPTSAMTYAANGDTLGPAGLSDPNAAPHGLFTTLGYRRWIAIAVFSEDEWRALKKVMGNPAWAEDGKFGSLQSRKENEAELNEHMEAWTSRQHADKIMDELLRNGVRAGVVNDARGAIEDDHLREREFWSYLDHPVMGRTLYNRAPIRLSKTPLRMETAAPLLGQHTRDVLKGMLDYTDEEIAMLSEEKVLV,not soluble
19,GLNFPTYDGKDRVVSLSEKNFKQVLKKYDLLCLYYHEPVSSDKVTQKQFQLKEIVLELVAQVLEHKAIGFVMVDAKKEAKLAKKLGFDEEGSLYILKGDRTIEFDGEFAADVLVEFLLDLIEDPVEIISSKLEVQAFERIEDYIKLIGFFKSEDSEYYKAFEEAAEHFQPYIKFFATFDKGVAKKLSLKMNEVDFYEPFMDEPIAIPNKPYTEEELVEFVKEHQRPTLRRLRPEEMFETWEDDLNGIHIVAFAEKSDPDGYEFLEILKQVARDNTDNPDLSILWIDPDDFPLLVAYWEKTFKIDLFRPQIGVVNVTDADSVWMEIPDDDDLPTAEELEDWIEDVLSGKINTEDDDEDDDDDDNSDEEDNDDSDDDDDE,soluble

# — the DeepSol protein solubility set
